Changes are numbered by the printed parent chain.
B1: NL24-A68 (antibody, V domains shown)
VH: QVQLVQSGAEVKKPGSSVKVSCKASGGTFSSYAISWVRQAPGQGLEWMGGIIPILGIANYAQKFQGRVTITADKSTSTAYMELSSLRAEDTAVYYCARGGSGRYLPDYWGQGTLVTVSA
VL: EIVLTQSPATLSLSPGERATLSCRASQSVSSYLAWYQQKPGQAPRLLIYDASNRATGIPARFSGSGSGTDFTLTISSLEPEDFAVYYCQQRSNWPPSLTFGGGTKVEIK
notes: Screened from the human source library; full-length antibody; also called NL24A68HC; NL24A68LC
B2: IL-P6-C11 (antibody, V domains shown)
VH: EVQLQQSGPELVKPGASVRISCKTSGYTFTDYVIHWVKQNHGGSLEWIGGINRDSGGTTYNQKFQDKVTLTVDKSSNTAYMELRSLTSEDSAVYYCTKWKFPWYFDVWGAGTTVTVSS
VL: DIELTQSPAIMSASPGEKVTMTCSASSSISYMHWYQQKPGTSPKRWIYDTSKLASGVPARFSGSGSGTSYSLTISRVEAEDAATYYCQQWSSNPLTFGSGTKLEIK
notes: Unhumanized murine variable regions; full-length antibody
B3: IL-P7-C05-H3L1 (antibody, V domains shown)
VH: EVQLVESGGGLVQPGGSLRLSCAASGFTFSSYGMSWVRQAPGKGLELVAAINSNGGSTYYADSVKGRFTISRDNAKNTLYLQMSSLRAEDTAVYYCTRNEEFRRGLAYWGQGTLVTVSS
VL: DIQMTQSPSSLSASVGDRVTITCRASENIYSNLAWYQQKPGKAPKLLVYAATNLADGVPSRFSGSGSGTDYTLTISSLQPEDFATYYCQHFWGTPPWTFGQGTKLEIK
notes: Humanized from IL-P7-C05; full-length antibody; also called ILP7C05huVH3 + ILP7C05huVL1
B4: IL-P7-C05-H1L1 (antibody, V domains shown)
VH: B3 VH with A50T, S57T, A61P, N77H
VL: B3 VL
notes: Humanized from IL-P7-C05; full-length antibody; also called ILP7C05huVH1 + ILP7C05huVL1
B5: IL-P7-C05-H3L3 (antibody, V domains shown)
VH: B3 VH
VL: B3 VL with V48I, T52S, A55Q, D56S
notes: Humanized from IL-P7-C05; full-length antibody; also called ILP7C05huVH3 + ILP7C05huVL3
B6: IL-P7-C05-H2L2 (antibody, V domains shown)
VH: B3 VH with A50T, S57T
VL: B3 VL with A55Q, D56S
notes: Humanized from IL-P7-C05; full-length antibody; also called ILP7C05huVH2 + ILP7C05huVL2
B7: IL-P7-C05-H4L1 (antibody, V domains shown)
VH: B3 VH with G33A
VL: B3 VL
notes: Humanized from IL-P7-C05; full-length antibody; also called ILP7C05huVH4 + ILP7C05huVL1
B8: IL-P7-C05-H2L1 (antibody, V domains shown)
VH: B3 VH with A50T, S57T
VL: B3 VL
notes: Humanized from IL-P7-C05; full-length antibody; also called ILP7C05huVH2 + ILP7C05huVL1
B9: NL24-A17 (antibody, V domains shown)
VH: QVQLVQSGAEVKKPGSSVKVSCKASGGTFSSYAISWVRQAPGQGLEWMGGIIPILGIANYAQKFQGRVTITADESTSTAYMELSSLRSEDTAVYYCARGDSGYDSNYWGQGTLVTVSA
VL: B1 VL with S31T, F83Y, S97L, L98F, G102P, E107D
notes: Screened from the human source library; full-length antibody; also called NL24A17HC; NL24A17LC
B10: NL24-A10 (antibody, V domains shown)
VH: B1 VH with Q1E, L55F, I57T, K74E, A88S, G100E, S101R, R103S, P106I
VL: B1 VL with S97M, L98Y, G102Q, V106L
notes: Screened from the human source library; full-length antibody; also called NL24A10HC; NL24A10LC
B11: IL-P6-B07 (antibody, V domains shown)
VH: B2 VH with D31E
VL: B2 VL with E3V, I29V, P39S, R76S, V77M, S99A, I105L
notes: as for B2
B12: IL-P5-C06-H2L3 (antibody, V domains shown)
VH: QVQLVQSGAEVKKPGASVKVSCKGSGYTFTDYAIHWGRQAPGQGLEWIGIINTYNGNSNYAQKFQGRATMTRDTSTSTAYMELSRLRSEDTAVYYCARNYGSSFNWYFDVWGQGTTVTVSS
VL: DIQLTQSPSSLSASVGDRVTITCRASSSISSNYLHWYQQKPGKAPKLLIYSTSNLASGVPSRFSGSGSGTDFTLTISSLQPEDFATYYCQQYSGYPLTFGQGTKLELK
notes: Humanized from IL-P5-C06; full-length antibody; also called ILP5C06huVH2 + ILP5C06huVL3
B13: IL-P5-C06-H1L3 (antibody, V domains shown)
VH: B12 VH with G37A, R72V, T74K
VL: B12 VL
notes: Humanized from IL-P5-C06; full-length antibody; also called ILP5C06huVH1 + ILP5C06huVL3
B14: IL-P5-C06-H1L4 (antibody, V domains shown)
VH: B12 VH with G37A, R72V, T74K
VL: B12 VL with L4M, A56Q
notes: Humanized from IL-P5-C06; full-length antibody; also called ILP5C06huVH1 + ILP5C06huVL4
B15: IL-P5-C06-H2L4 (antibody, V domains shown)
VH: B12 VH
VL: B12 VL with L4M, A56Q
notes: Humanized from IL-P5-C06; full-length antibody; also called ILP5C06huVH2 + ILP5C06huVL4
B16: IL-P5-C06-H1L1 (antibody, V domains shown)
VH: B12 VH with G37A, R72V, T74K
VL: B12 VL with L11M, V19I, A44S, F72Y, L79V
notes: Humanized from IL-P5-C06; full-length antibody; also called ILP5C06huVH1 + ILP5C06huVL1
B17: IL-P5-C06-H2L2 (antibody, V domains shown)
VH: B12 VH
VL: B12 VL with V19I, L79V
notes: Humanized from IL-P5-C06; full-length antibody; also called ILP5C06huVH2 + ILP5C06huVL2
B18: IL-P5-C06-H3L3 (antibody, V domains shown)
VH: B12 VH with G24A, I48M, A68V
VL: B12 VL
notes: Humanized from IL-P5-C06; full-length antibody; also called ILP5C06huVH3 + ILP5C06huVL3
B19: IL-P5-C06-H3L4 (antibody, V domains shown)
VH: B12 VH with G24A, I48M, A68V
VL: B12 VL with L4M, A56Q
notes: Humanized from IL-P5-C06; full-length antibody; also called ILP5C06huVH3 + ILP5C06huVL4

Target: T1, B7-H3 on CHOK cells overexpressing B7-H3
T1 sequence (Q5ZPR3 whole entry, species assumed, looked up): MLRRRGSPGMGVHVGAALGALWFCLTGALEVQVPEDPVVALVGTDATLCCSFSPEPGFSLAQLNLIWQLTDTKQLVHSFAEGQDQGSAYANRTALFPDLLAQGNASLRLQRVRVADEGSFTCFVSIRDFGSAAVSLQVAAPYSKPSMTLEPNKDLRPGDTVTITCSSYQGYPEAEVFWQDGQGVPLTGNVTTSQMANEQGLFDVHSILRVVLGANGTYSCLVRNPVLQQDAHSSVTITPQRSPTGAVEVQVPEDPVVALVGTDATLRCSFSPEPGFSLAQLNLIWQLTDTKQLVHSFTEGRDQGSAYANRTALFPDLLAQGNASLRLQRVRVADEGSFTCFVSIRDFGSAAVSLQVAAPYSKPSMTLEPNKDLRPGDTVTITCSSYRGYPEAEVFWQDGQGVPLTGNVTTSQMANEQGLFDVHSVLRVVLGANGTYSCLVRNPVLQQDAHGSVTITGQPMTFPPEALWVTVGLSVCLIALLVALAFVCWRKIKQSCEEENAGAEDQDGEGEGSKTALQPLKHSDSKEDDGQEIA
Experiment: cell-based or functional assay

Binder	IC50 of CHO endocytosis experiment (toxin-labeled secondary antibody, cell viability)
B1	0.0035 µg/mL
B2	0.0035 µg/mL

Target: T2, B7-H3 endogenously expressed on human tumor cell lines (human, UniProt Q5ZPR3 29-534)
T2 construct: whole, on cells; The cell line is named in the assay or readout field of each row; also called NCI-H322 cells endogenously expressing B7-H3; B7-H3-positive human tumor cell lines NCI-H1975, BxPC-3, Calu-6
T2 sequence (looked up): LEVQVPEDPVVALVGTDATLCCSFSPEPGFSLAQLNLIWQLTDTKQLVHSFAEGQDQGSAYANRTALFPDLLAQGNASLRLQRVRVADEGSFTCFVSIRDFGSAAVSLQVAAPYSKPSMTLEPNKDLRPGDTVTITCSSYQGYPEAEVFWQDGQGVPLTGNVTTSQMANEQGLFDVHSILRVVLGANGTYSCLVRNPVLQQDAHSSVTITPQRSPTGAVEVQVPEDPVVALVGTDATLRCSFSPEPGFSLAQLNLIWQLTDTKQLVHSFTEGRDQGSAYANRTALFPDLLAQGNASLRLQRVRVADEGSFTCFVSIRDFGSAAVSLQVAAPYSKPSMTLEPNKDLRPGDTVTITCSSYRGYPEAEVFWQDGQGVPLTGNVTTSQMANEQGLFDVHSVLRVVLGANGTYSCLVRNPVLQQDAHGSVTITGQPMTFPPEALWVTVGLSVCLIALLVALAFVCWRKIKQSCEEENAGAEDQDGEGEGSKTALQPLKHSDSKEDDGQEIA
Experiment: flow cytometry on NCI-H322 cells
Method: (§1) CHOK cells overexpressing B7-H3 or NCI-H322 cells endogenously expressing B7-H3 were added to a round-bottom 96-well plate at 100,000 cells per well, centrifuged to remove the supernatant, and then added with a gradient-diluted anti-B7-H3 antibody and incubated at 4 degrees for 1 h. After incubation, the cells were washed twice with FACS buffer (PBS containing 2% FBS), then added with fluorescent-labeled goat anti-human secondary antibody (Abcam, ab98596) and incubated for 0.5 h. After incubation, the cells were washed twice with FACS buffer, then resuspended with FACS buffer and detected with flow cytometry (Beckman, cytoFlex).

Binder	EC50
B3	0.0109 µg/mL
B4	0.0107 µg/mL
B5	0.0106 µg/mL
B6	0.0145 µg/mL
B7	0.0138 µg/mL
B8	0.0144 µg/mL
B1	0.0484 µg/mL
B9	0.0267 µg/mL
B10	0.0304 µg/mL
B2	0.21 µg/mL
B11	0.249 µg/mL
B12	0.0618 µg/mL
B13	0.0829 µg/mL
B14	0.0436 µg/mL
B15	0.0576 µg/mL
B16	0.0895 µg/mL
B17	0.0919 µg/mL
B18	0.137 µg/mL
B19	0.107 µg/mL

Target: T3, monkey B7-H3-his (monkey)
T3 chain: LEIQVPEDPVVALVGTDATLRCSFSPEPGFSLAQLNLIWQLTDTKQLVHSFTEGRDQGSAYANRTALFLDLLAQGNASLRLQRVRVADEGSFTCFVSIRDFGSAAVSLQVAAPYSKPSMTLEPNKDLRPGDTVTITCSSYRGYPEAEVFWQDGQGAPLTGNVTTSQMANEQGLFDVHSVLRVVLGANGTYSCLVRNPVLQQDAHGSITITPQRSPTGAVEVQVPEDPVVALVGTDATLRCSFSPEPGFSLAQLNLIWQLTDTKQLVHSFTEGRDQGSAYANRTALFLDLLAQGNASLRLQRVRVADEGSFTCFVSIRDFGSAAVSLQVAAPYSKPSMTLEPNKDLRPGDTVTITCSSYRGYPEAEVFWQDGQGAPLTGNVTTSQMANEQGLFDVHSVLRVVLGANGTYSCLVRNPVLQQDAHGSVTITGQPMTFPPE
Experiment: ELISA, antigen coated at 2 µg/mL
Method: (§2) Human B7-H3-his, mouse B7-H3-his and monkey B7-H3-his were diluted to 2 μg/mL with PBS, and added to the ELISA plate at 30 μL per well. The ELISA plate was then incubated in a refrigerator at 4° C. for 16-20 hours. The next day, the ELISA plate was washed once with a lotion (PBS containing 0.05% Tween 20) and then blocked with 5% skim milk powder for 1 hour. After blocking, the ELISA plate was washed once, then added with gradient-diluted anti-B7-H3 antibodies, and incubated at room temperature for 1 h. After incubated, the ELISA plate was washed three times, then added with goat anti-human HRP-labeled secondary antibody, and incubated at room temperature for 1 h. After incubated, the ELISA plate was washed three times, then developed for 5-15 minutes by adding TMB, and finally terminated with 2M sulfuric acid. The data were recorded on the microplate reader.

Binder	EC50
B1	0.131 µg/mL
B9	0.0527 µg/mL
B10	0.124 µg/mL
B2	0.0152 µg/mL
B11	0.183 µg/mL

Target: T4, mouse B7-H3-his (mouse, UniProt Q8VE98 29-244, limits assumed)
T4 construct: His-tagged recombinant protein coated on the ELISA plate; not shown: his tag
T4 sequence (looked up): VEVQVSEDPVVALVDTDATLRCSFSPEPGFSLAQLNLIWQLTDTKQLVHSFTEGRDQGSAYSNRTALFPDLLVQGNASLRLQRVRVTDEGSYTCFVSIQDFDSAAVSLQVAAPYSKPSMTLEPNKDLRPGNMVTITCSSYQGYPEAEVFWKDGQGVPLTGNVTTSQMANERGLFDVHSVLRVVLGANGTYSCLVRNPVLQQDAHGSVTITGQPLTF
Experiment: ELISA, antigen coated at 2 µg/mL
Method: as §2

Binder	EC50
B1	0.205 µg/mL
B9	0.0643 µg/mL
B10	0.219 µg/mL
B2	0.523 µg/mL
B11	1.29 µg/mL

Target: T1, B7-H3 on CHOK cells overexpressing B7-H3
Experiment: flow cytometry on CHOK cells overexpressing B7-H3
Method: as §1

Binder	EC50
B3	0.454 µg/mL
B4	0.426 µg/mL
B5	0.431 µg/mL
B6	0.455 µg/mL
B7	0.468 µg/mL
B8	0.426 µg/mL
B9	0.665 µg/mL
B10	0.448 µg/mL
B2	0.311 µg/mL
B12	0.826 µg/mL
B13	0.941 µg/mL
B14	0.596 µg/mL
B15	0.747 µg/mL
B16	1.05 µg/mL
B17	1.12 µg/mL
B18	1.18 µg/mL
B19	1.13 µg/mL
